How the values were obtained:
[1] = biological target: T1, yeast ENIP1 protein fragment (composed of amino acids 170-469) (S. cerevisiae, UniProt Q99207 170-469); assay: yeast two-hybrid
T1 construct: Truncation construct used in the yeast two-hybrid system
T1 sequence: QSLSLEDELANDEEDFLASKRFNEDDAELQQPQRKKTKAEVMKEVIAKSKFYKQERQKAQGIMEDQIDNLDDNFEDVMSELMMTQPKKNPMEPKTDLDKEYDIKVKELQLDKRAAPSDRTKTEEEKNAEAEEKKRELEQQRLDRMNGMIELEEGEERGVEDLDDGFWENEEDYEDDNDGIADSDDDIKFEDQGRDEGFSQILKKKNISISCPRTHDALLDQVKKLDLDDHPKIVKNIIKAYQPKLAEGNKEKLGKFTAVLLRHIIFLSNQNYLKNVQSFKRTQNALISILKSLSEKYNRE

[2] = biological target: T2, yeast Emg1-Nuclear Interacting Protein 1 (ENIP1), S. cerevisiae gene locus YDL148c (S. cerevisiae, UniProt Q99207 1-810, limits assumed); assay: yeast two-hybrid, cell growth assay on selective (no histidine) medium
T2 construct: 810 amino acids; also called yeast ENIP1; yENIP
T2 sequence: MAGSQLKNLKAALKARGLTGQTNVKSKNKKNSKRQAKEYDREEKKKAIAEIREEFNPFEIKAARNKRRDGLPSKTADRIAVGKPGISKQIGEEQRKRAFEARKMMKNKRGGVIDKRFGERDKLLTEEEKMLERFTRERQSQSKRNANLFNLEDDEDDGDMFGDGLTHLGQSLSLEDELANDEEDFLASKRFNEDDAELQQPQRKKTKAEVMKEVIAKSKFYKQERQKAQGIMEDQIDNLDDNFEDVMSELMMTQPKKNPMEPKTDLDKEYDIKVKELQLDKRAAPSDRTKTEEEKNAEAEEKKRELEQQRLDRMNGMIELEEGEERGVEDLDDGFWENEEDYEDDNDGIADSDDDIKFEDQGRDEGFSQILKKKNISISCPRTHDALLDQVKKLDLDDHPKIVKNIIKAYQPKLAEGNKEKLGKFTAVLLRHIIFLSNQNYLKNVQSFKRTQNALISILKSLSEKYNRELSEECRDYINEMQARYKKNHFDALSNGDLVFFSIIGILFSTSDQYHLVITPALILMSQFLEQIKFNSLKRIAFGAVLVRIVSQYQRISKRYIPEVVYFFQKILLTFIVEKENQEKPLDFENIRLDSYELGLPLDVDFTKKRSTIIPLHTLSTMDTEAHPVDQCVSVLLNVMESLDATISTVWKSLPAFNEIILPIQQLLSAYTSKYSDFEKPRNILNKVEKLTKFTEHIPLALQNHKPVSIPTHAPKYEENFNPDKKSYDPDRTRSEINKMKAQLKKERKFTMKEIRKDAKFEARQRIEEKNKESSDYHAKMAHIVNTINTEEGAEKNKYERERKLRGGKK

binding result [1]: binds
binding result [2]: binds
B1: mouse Emg1 protein (other)
chain: MSAASGGFQPRERRFSVQEQDWETTPPKKLRLGAGSKCGGRRLIVVLEGASLETVKVGKTYELLNCDRHKSMLLKNGRDPGEVRPDITHQSLLMLMDSPLNRAGLLQVYIHTQKNVLIEVNPQTRIPRTFDRFCGLMVQLLHKLSVRAADGPQKLLKVIKNPVSDHFPVGCMKIGTSFSVEDISDIRELVPSSDPVVFVVGAFAHGKVSVEYTEKMVSISNYPLSAALTCAKVTTAFEEVWGVI
notes: Used as a two-hybrid fusion; also called mEmg1; murine Emg1
